Test results reported in IntAct's records for PubMed 18033301.

B1: Clathrin interactor 1 (Homo sapiens), Q14677 (parent)
chain: MLNMWKVRELVDKATNVVMNYSEIESKVREATNDDPWGPSGQLMGEIAKATFMYEQFPELMNMLWSRMLKDNKKNWRRVYKSLLLLAYLIRNGSERVVTSAREHIYDLRSLENYHFVDEHGKDQGINIRQKVKELVEFAQDDDRLREERKKAKKNKDKYVGVSSDSVGGFRYSERYDPEPKSKWDEEWDKNKSAFPFSDKLGELSDKIGSTIDDTISKFRRKDREDSPERCSDSDEEKKARRGRSPKGEFKDEEETVTTKHIHITQATETTTTRHKRTANPSKTIDLGAAAHYTGDKASPDQNASTHTPQSSVKTSVPSSKSSGDLVDLFDGTSQSTGGSADLFGGFADFGSAAASGSFPSQVTATSGNGDFGDWSAFNQAPSGPVASSGEFFGSASQPAVELVSGSQSALGPPPAASNSSDLFDLMGSSQATMTSSQSMNFSMMSTNTVGLGLPMSRSQNTDMVQKSVSKTLPSTWSDPSVNISLDNLLPGMQPSKPQQPSLNTMIQQQNMQQPMNVMTQSFGAVNLSSPSNMLPVRPQTNALIGGPMPMSMPNVMTGTMGMAPLGNTPMMNQSMMGMNMNIGMSAAGMGLTGTMGMGMPNIAMTSGTVQPKQDAFANFANFSK
partner: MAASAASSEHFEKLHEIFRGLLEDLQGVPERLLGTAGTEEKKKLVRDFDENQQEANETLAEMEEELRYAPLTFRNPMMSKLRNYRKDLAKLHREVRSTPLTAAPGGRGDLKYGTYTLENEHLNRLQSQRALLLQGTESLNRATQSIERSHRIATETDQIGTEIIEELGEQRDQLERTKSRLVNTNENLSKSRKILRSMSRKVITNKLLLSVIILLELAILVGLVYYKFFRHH
B2: Vesicle transport through interaction with t-SNAREs homolog 1B (Mus musculus), O88384 (parent)
chain: B1 partner
partner: B1 chain

Variants of: B1
Settings: with vti1b_mouse Vti1b

Row | effect of a mutation on the interaction | Variant
1 | disrupting interaction strength | M53D;Y54D
2 | disrupting interaction strength | R96S
3 | disrupting interaction strength | R146E
4 | disrupting interaction strength | F52D

Variants of: B2
Settings: with epn4_human CLINT1, Q14677

Row | effect of a mutation on the interaction | Variant
5 | disrupting interaction strength | E12A
6 | disrupting interaction strength | E23R
7 | disrupting interaction strength | E65W
8 | disrupting interaction strength | F73S
9 | disrupting interaction strength | S8W
